Experimental findings from patent US7534592 (Takeda / Millennium, dated 2009) are described below.

The data set concerns the molecule itself. In words: analytical size-exclusion chromatography; self-association (homodimer).

B1: recombinant ACC2 catalytic domain (carboxyltransferase domain of human Acetyl-Coenzyme A Carboxylase 2, residues 1715-2483 of SEQ. ID No. 1) with a … (enzyme)
chain: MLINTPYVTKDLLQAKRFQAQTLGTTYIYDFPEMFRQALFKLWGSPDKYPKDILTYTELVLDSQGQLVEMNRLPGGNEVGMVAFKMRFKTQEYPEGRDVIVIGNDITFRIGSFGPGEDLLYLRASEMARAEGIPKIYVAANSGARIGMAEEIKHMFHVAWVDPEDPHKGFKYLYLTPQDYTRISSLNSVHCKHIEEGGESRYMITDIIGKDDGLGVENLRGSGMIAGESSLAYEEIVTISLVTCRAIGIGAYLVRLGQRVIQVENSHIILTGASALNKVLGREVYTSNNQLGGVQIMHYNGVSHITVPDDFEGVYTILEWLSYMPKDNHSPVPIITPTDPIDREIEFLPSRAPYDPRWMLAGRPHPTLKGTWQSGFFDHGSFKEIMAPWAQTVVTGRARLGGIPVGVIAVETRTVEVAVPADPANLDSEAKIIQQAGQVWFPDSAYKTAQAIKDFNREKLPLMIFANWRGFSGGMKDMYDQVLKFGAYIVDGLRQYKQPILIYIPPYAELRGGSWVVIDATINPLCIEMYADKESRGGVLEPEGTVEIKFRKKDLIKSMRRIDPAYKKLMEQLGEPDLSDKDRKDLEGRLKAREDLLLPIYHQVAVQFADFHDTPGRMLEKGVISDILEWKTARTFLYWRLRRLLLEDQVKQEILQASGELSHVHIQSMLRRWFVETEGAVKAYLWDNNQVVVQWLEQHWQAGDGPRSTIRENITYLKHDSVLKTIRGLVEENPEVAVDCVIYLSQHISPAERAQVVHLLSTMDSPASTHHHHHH
modifications: one acetylation observed by mass spectrometry (position not given)
notes: The entries describe its self-association into the homodimer (two copies of this chain); Expressed in Sf9 insect cells; In the crystal it is in complex with acetyl-CoA, a small molecule; also called carboxyltransferase domain of ACC2; ID No. 3
Consider B1, for which the binding result was “binds”.
